Results as given in the supplement of paper PMC6757056.
± gives the standard deviation of the averaged measurements.

B1: library; a variant is named by its letters at N, in order (parent)
chain: GCUGUCACCGGUGUAUUACCCUAGUGGUCGACCGGUCUGAUGAGUCUNNNNNNAGACGAAACAGC

Assays:
hypoxanthine [1] = variants of: B1; assay: normalized RNA/DNA level with ligand (relative to sTRSVctl = 100) (log10 (% of sTRSVctl)); ligand: hypoxanthine (xanthine aptamer); higher = less ribozyme self-cleavage, higher mRNA level; conditions: ligand concentration (+) RNA-Seq: 5 mM, HEK293T, reporter: mCherry (pCS4076), ligand present: yes
Outline: (§1)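 Only sequences with at least 100 DNA reads were analyzed, from HEK293T cells transfected with 4 µg per 6-well well of ribozyme switch library plasmids 72 h before RNA extraction with EDTA. Any ligand was added 1 h before transfection. RNA level was defined as RNA over DNA reads, normalized to a spiked-in non-cleaving sequence or to the top sequences, then scaled and log-transformed. The top set was 25 sequences, and the scaling was ×100 followed by log10.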

hypoxanthine [2] = variants of: B1; assay: normalized RNA/DNA level without ligand (relative to sTRSVctl = 100) (log10 (% of sTRSVctl)); ligand: hypoxanthine (xanthine aptamer); higher = less ribozyme self-cleavage, higher mRNA level; conditions: HEK293T, reporter: mCherry (pCS4076), ligand present: no
Outline: as §1

Question: Which “normalized RNA/DNA level with ligand (log10)” value (hypoxanthine [1]) does the source give for GCUGUCACCGGUGUAUUACCCUAGUGGUCGACCGGUCUGAUGAGUCUUUUCAUAGACGAAACAGC [UUUCAU] here?
Answer: The value was 1.915 ± 0.013.

Question: And the “normalized RNA/DNA level without ligand (log10)” value (hypoxanthine [2])?
Answer: Its value is 1.838 ± 0.0065.

Question: Which “normalized RNA/DNA level with ligand (log10)” value (hypoxanthine [1]) does the source give for GCUGUCACCGGUGUAUUACCCUAGUGGUCGACCGGUCUGAUGAGUCUUUUCAGAGACGAAACAGC [UUUCAG] here?
Answer: Its value is 1.9 ± 0.021.

Question: And the “normalized RNA/DNA level without ligand (log10)” value (hypoxanthine [2])?
Answer: The value was 1.71 ± 0.042.

Question: What does the source list for GCUGUCACCGGUGUAUUACCCUAGUGGUCGACCGGUCUGAUGAGUCUUUUCACAGACGAAACAGC [UUUCAC]?
Answer: normalized RNA/DNA level with ligand (log10) (hypoxanthine [1]): 1.9884 ± 0.0013; normalized RNA/DNA level without ligand (log10) (hypoxanthine [2]): 1.91 ± 0.031

Question: Which results are given for GCUGUCACCGGUGUAUUACCCUAGUGGUCGACCGGUCUGAUGAGUCUUUUCAAAGACGAAACAGC [UUUCAA]?
Answer: normalized RNA/DNA level with ligand (log10) (hypoxanthine [1]): 1.9299 ± 0.00082; normalized RNA/DNA level without ligand (log10) (hypoxanthine [2]): 1.866 ± 0.015

Question: With GCUGUCACCGGUGUAUUACCCUAGUGGUCGACCGGUCUGAUGAGUCUGUUCCCAGACGAAACAGC [GUUCCC] as the variant, how does the “normalized RNA/DNA level with ligand (log10)” value (hypoxanthine [1]) read?
Answer: Its value is 1.99 ± 0.021.

Question: What about the “normalized RNA/DNA level without ligand (log10)” value (hypoxanthine [2]) of the same variant?
Answer: The value was 1.92 ± 0.044.

Question: For GCUGUCACCGGUGUAUUACCCUAGUGGUCGACCGGUCUGAUGAGUCUGUUCCGAGACGAAACAGC [GUUCCG], which “normalized RNA/DNA level with ligand (log10)” value (hypoxanthine [1]) is on record?
Answer: The value was 1.94 ± 0.028.

Question: What about the “normalized RNA/DNA level without ligand (log10)” value (hypoxanthine [2]) of the same variant?
Answer: Its value is 1.72 ± 0.048.

Question: How did the “normalized RNA/DNA level with ligand (log10)” value (hypoxanthine [1]) turn out when GCUGUCACCGGUGUAUUACCCUAGUGGUCGACCGGUCUGAUGAGUCUGUUCCUAGACGAAACAGC [GUUCCU] was run?
Answer: Its value is 1.99 ± 0.012.

Question: What about the “normalized RNA/DNA level without ligand (log10)” value (hypoxanthine [2]) of the same variant?
Answer: Its value is 1.98 ± 0.056.

Question: Which results are given for GCUGUCACCGGUGUAUUACCCUAGUGGUCGACCGGUCUGAUGAGUCUGUUCCAAGACGAAACAGC [GUUCCA]?
Answer: normalized RNA/DNA level with ligand (log10) (hypoxanthine [1]): 1.963 ± 0.017; normalized RNA/DNA level without ligand (log10) (hypoxanthine [2]): 1.9 ± 0.029

Question: GCUGUCACCGGUGUAUUACCCUAGUGGUCGACCGGUCUGAUGAGUCUCUUAUUAGACGAAACAGC [CUUAUU] was tested. Which “normalized RNA/DNA level with ligand (log10)” value (hypoxanthine [1]) did it give?
Answer: Its value is 1.95 ± 0.047.

Question: And the “normalized RNA/DNA level without ligand (log10)” value (hypoxanthine [2])?
Answer: The value was 1.872 ± 0.005.

Question: Which results are given for GCUGUCACCGGUGUAUUACCCUAGUGGUCGACCGGUCUGAUGAGUCUCUUCUAAGACGAAACAGC [CUUCUA]?
Answer: normalized RNA/DNA level with ligand (log10) (hypoxanthine [1]): 1.97 ± 0.051; normalized RNA/DNA level without ligand (log10) (hypoxanthine [2]): 1.85 ± 0.077

Question: GCUGUCACCGGUGUAUUACCCUAGUGGUCGACCGGUCUGAUGAGUCUAUUCGCAGACGAAACAGC [AUUCGC] was tested. Which “normalized RNA/DNA level with ligand (log10)” value (hypoxanthine [1]) did it give?
Answer: The value was 1.96 ± 0.04.

Question: What about the “normalized RNA/DNA level without ligand (log10)” value (hypoxanthine [2]) of the same variant?
Answer: The value was 1.89 ± 0.023.

Question: Which “normalized RNA/DNA level with ligand (log10)” value (hypoxanthine [1]) does the source give for GCUGUCACCGGUGUAUUACCCUAGUGGUCGACCGGUCUGAUGAGUCUAUUCGUAGACGAAACAGC [AUUCGU] here?
Answer: Its value is 1.93 ± 0.0044.

Question: And the “normalized RNA/DNA level without ligand (log10)” value (hypoxanthine [2])?
Answer: The value was 1.897 ± 0.018.

Question: With GCUGUCACCGGUGUAUUACCCUAGUGGUCGACCGGUCUGAUGAGUCUAUUCGAAGACGAAACAGC [AUUCGA] as the variant, how does the “normalized RNA/DNA level with ligand (log10)” value (hypoxanthine [1]) read?
Answer: Its value is 1.91 ± 0.042.

Question: And the “normalized RNA/DNA level without ligand (log10)” value (hypoxanthine [2])?
Answer: The value was 1.738 ± 0.015.

Question: For GCUGUCACCGGUGUAUUACCCUAGUGGUCGACCGGUCUGAUGAGUCUUUUCGUAGACGAAACAGC [UUUCGU], which “normalized RNA/DNA level with ligand (log10)” value (hypoxanthine [1]) is on record?
Answer: Its value is 1.96 ± 0.0091.

Question: What about the “normalized RNA/DNA level without ligand (log10)” value (hypoxanthine [2]) of the same variant?
Answer: The value was 1.851 ± 0.0071.

Question: Which results are given for GCUGUCACCGGUGUAUUACCCUAGUGGUCGACCGGUCUGAUGAGUCUUUUCGAAGACGAAACAGC [UUUCGA]?
Answer: normalized RNA/DNA level with ligand (log10) (hypoxanthine [1]): 1.953 ± 0.013; normalized RNA/DNA level without ligand (log10) (hypoxanthine [2]): 1.915 ± 0.006

Question: Which “normalized RNA/DNA level with ligand (log10)” value (hypoxanthine [1]) does the source give for GCUGUCACCGGUGUAUUACCCUAGUGGUCGACCGGUCUGAUGAGUCUUUUCGCAGACGAAACAGC [UUUCGC] here?
Answer: Its value is 1.95 ± 0.023.

Question: And the “normalized RNA/DNA level without ligand (log10)” value (hypoxanthine [2])?
Answer: The value was 1.92 ± 0.047.

Question: What does the source list for GCUGUCACCGGUGUAUUACCCUAGUGGUCGACCGGUCUGAUGAGUCUUUUCGGAGACGAAACAGC [UUUCGG]?
Answer: normalized RNA/DNA level with ligand (log10) (hypoxanthine [1]): 1.964 ± 0.012; normalized RNA/DNA level without ligand (log10) (hypoxanthine [2]): 1.94 ± 0.072

Question: How did the “normalized RNA/DNA level with ligand (log10)” value (hypoxanthine [1]) turn out when GCUGUCACCGGUGUAUUACCCUAGUGGUCGACCGGUCUGAUGAGUCUGUUAUUAGACGAAACAGC [GUUAUU] was run?
Answer: Its value is 1.971 ± 0.0054.

Question: And the “normalized RNA/DNA level without ligand (log10)” value (hypoxanthine [2])?
Answer: Its value is 1.916 ± 0.0092.

Question: What does the source list for GCUGUCACCGGUGUAUUACCCUAGUGGUCGACCGGUCUGAUGAGUCUCUUCCUAGACGAAACAGC [CUUCCU]?
Answer: normalized RNA/DNA level with ligand (log10) (hypoxanthine [1]): 1.98 ± 0.038; normalized RNA/DNA level without ligand (log10) (hypoxanthine [2]): 1.96 ± 0.032

Question: Which results are given for GCUGUCACCGGUGUAUUACCCUAGUGGUCGACCGGUCUGAUGAGUCUCUUCCAAGACGAAACAGC [CUUCCA]?
Answer: normalized RNA/DNA level with ligand (log10) (hypoxanthine [1]): 1.93 ± 0.043; normalized RNA/DNA level without ligand (log10) (hypoxanthine [2]): 1.91 ± 0.091

Question: For GCUGUCACCGGUGUAUUACCCUAGUGGUCGACCGGUCUGAUGAGUCUGUUCUAAGACGAAACAGC [GUUCUA], which “normalized RNA/DNA level with ligand (log10)” value (hypoxanthine [1]) is on record?
Answer: The value was 1.949 ± 0.011.

Question: What about the “normalized RNA/DNA level without ligand (log10)” value (hypoxanthine [2]) of the same variant?
Answer: Its value is 1.89 ± 0.039.
